The source of these data is paper PMC6745501, “Plant photoreceptors and their signaling components compete for COP1 binding via VP peptide motifs” (The EMBO Journal, 2019).

The labels stand for the following.
B2: Arabidopsis COP1^349–675 WD40 domain (domain or fragment, UniProt P43254 349-675, looked up)
chain: TFTRYSRLRVIAEIRHGDIFHSANIVSSIEFDRDDELFATAGVSRCIKVFDFSSVVNEPADMQCPIVEMSTRSKLSCLSWNKHEKNHIASSDYEGIVTVWDVTTRQSLMEYEEHEKRAWSVDFSRTEPSMLVSGSDDCKVKVWCTRQEASVINIDMKANICCVKYNPGSSNYIAVGSADHHIHYYDLRNISQPLHVFSGHKKAVSYVKFLSNNELASASTDSTLRLWDVKDNLPVRTFRGHTNEKNFVGLTVNSEYLACGSETNEVYVYHKEITRPVTSHRFGSPDMDDAEEEAGSYFISAVCWKSDSPTMLTANSQGTIKVLVLAA
notes: COP1 (CONSTITUTIVELY PHOTOMORPHOGENIC 1) E3 ubiquitin ligase, Arabidopsis, WD40 domain, residues 349-675; also called COP1 WD40 domain; COP1 WD40; not shown: His10, N-terminal, cleaved; Twin-Strep, N-terminal, cleaved

What all share (conditions): both partners purified
In experiment [1] the target is B2. Briefly: ITC; VP peptide (titrant, 500-3,000 μM) injected into COP1 WD40 in the cell at about 10-fold lower concentration; 150 mM NaCl, 20 mM HEPES 7.4, 2 mM BME; 25°C; one-site binding model.
For experiment [2], the target named is T1, COP1^Tyr441Ala WD40 domain (Arabidopsis, UniProt P43254 349-675, Tyr441Ala).
T1 construct: COP1, Arabidopsis, WD40 domain (mutant of COP1 349-675), Tyr441Ala; not shown: His10, N-terminal, cleaved; Twin-Strep, N-terminal, cleaved
T1 sequence (looked up): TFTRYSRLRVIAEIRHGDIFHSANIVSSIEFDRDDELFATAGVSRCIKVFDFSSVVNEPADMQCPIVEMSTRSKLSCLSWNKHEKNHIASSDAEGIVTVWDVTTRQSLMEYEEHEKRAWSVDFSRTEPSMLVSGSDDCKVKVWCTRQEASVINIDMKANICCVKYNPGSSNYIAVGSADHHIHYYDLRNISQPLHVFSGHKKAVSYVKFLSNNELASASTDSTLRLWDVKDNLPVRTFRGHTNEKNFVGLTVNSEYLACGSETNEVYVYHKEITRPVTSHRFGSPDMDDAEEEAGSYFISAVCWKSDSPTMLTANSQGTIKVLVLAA
The experiment is described as above.

The target of experiment [3] is T2, COP1^349–675,Lys422Ala WD40 domain (Arabidopsis, UniProt P43254 349-675, Lys422Ala).
T2 construct: COP1, Arabidopsis, WD40 domain, residues 349-675, Lys422Ala; also called COP1^Lys422Ala; not shown: His10, N-terminal, cleaved; Twin-Strep, N-terminal, cleaved
T2 sequence (looked up): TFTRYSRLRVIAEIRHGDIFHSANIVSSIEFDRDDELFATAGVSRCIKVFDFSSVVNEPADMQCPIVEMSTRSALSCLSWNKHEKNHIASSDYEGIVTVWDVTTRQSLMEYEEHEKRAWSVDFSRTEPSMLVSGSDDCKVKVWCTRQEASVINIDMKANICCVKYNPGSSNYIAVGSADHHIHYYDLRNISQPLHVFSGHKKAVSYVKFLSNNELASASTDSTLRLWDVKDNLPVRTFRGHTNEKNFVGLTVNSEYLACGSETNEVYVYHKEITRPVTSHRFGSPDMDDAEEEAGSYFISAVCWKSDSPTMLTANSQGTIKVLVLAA
Described as above.

For experiment [4], the target named is T3, UVR8^12–381 β‐propeller core (Arabidopsis, UniProt Q9FN03 12-381).
T3 construct: also called UVR8 β‐propeller core; UVR8 core domain; not shown: His10, N-terminal, cleaved; Twin-Strep, N-terminal, cleaved
T3 sequence (looked up): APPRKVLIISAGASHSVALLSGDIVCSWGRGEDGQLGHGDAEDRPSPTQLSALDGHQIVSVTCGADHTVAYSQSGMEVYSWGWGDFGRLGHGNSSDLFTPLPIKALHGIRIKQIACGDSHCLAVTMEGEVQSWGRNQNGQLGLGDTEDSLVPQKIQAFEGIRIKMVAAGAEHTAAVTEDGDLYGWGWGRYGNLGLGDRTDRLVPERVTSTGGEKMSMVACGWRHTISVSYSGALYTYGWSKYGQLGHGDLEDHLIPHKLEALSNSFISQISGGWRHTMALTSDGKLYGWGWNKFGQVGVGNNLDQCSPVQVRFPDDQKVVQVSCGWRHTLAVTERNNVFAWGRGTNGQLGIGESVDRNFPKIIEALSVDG
Nature of the experiment: not stated; UV-B-activated UVR8 forms versus COP1 WD40 and its mutants; Appendix Figs S4B, S4C, S6A, S6B, not shown (ITC or GCI).

Experiment [5] has as its target T4, full‐length UVR8 (recombinant) (Arabidopsis, UniProt Q9FN03 1-440).
T4 construct: UV … LOCUS 8 (UVR8) UV-B photoreceptor, Arabidopsis, full length; Dimer in the ground state; monomerized by 60 min UV-B on ice where the assay says so; not shown: His10, N-terminal, cleaved; Twin-Strep, N-terminal, cleaved
T4 sequence (looked up): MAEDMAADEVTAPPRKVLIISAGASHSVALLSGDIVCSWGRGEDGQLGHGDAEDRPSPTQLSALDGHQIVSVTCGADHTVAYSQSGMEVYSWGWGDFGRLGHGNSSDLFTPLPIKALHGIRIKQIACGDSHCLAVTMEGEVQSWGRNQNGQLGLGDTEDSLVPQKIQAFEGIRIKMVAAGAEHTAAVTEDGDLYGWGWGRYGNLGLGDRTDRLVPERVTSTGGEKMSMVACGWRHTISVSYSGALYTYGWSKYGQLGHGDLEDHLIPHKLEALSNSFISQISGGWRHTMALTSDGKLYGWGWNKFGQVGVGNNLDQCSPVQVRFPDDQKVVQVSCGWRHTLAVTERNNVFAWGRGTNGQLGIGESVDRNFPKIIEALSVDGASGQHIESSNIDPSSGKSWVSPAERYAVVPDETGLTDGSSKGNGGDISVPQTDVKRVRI
Briefly: not stated; non-photoactivated (ground-state) full-length UVR8 versus COP1 WD40; Appendix Fig S4A, not shown (ITC or GCI).

For experiment [6], the target named is T5, UVR8^ValPro/AlaAla (recombinant) (Arabidopsis, UniProt Q9FN03 1-440, ValPro/AlaAla).
T5 construct: UVR8, Arabidopsis, Val-Pro of the C-terminal VP motif mutated to Ala-Ala; compared with the wild type (full-length) protein, monomer ~50 kDa; also called the mutant photoreceptor; not shown: His10, N-terminal, cleaved; Twin-Strep, N-terminal, cleaved
T5 sequence (looked up): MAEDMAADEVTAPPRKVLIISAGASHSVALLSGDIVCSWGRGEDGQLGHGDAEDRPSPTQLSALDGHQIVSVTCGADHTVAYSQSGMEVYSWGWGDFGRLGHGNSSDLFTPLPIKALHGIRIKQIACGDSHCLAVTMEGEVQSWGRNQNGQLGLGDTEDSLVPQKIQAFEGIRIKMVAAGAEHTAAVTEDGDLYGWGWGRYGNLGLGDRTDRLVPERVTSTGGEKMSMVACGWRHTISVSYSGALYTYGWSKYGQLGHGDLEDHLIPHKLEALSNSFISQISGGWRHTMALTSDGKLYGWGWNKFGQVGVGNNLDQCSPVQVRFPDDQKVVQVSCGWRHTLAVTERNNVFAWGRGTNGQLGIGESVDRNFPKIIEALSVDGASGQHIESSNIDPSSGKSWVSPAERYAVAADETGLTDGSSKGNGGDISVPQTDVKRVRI
Briefly: SEC; analytical SEC, Superdex 200 Increase 10/300 GL; ~4 μM of each protein mixed; UVR8 form pre-monomerized by UV-B; 150 mM NaCl, 20 mM HEPES 7.4, 2 mM BME; fractions on Coomassie-stained SDS-PAGE. For orientation: In gel filtration, larger molecules generally elute earlier.

B1: HY5^39–48 VP peptide (peptide, UniProt O24646 39-48, looked up)
peptide: EIRRVPEFGG
notes: ELONGATED HYPOCOTYL 5 (HY5) bZIP transcription factor, residues 39-48 (holds Arg41, Glu45); also called HY5 VP peptide; HY5 peptide; source: synthetic peptide (Peptide Specialty Labs GmbH)
For orientation: Kd means the constant that tells how readily two partners part at equilibrium. As a reminder, the stoichiometry N is the number of molecules, sites or subunits per partner or assembly. With B1, in experiment [1], the Kd is about 20 µM and the “fold stronger binding than UVR8^406–413” value is about 8 fold. In addition, the “stoichiometry N” value in experiment [2] was determined as 0.92. The “stoichiometry N” value in experiment [3] came out at 0.83.

Take B2: the Kd in experiment [4] was about 0.5 µM; in experiment [5], about 1 µM. Moreover, the binding result in experiment [6] is on record as “binds”.
